Reference: US20240158497A1
Where “and” joins values, the source holds several entries; their conditions need not be identical. Equal values may be shown once.

Key:
[1] = target: full length human GP130 (L2V natural variant) on HEK293/Stat3-luc/gp130-2X Sort cells (human) (UniProt P40189); test: FACS, secondary antibody alone on HEK293/gp130 2X Sort cells
[2] = target: extracellular domain of human LEPR, GPI-anchored, on HEK293/hLEPR-GPI cells (human) (UniProt P48357); test: FACS, secondary antibody alone on HEK293/hLEPR-GPI cells, no Leptin
[3] = target: extracellular domain of human LEPR, GPI-anchored, on HEK293/hLEPR-GPI cells (human) (UniProt P48357); test: FACS, secondary antibody alone on HEK293/hLEPR-GPI cells, 1 µM Leptin
[4] = target: wild-type human GP130 on HEK293.STAT3.Luc.GP130 reporter cells (human) (UniProt P40189); test: cell-based or functional assay
[5] = target: mutant human LEPR (Y1141F) on HEK293.STAT3.Luc.GP130.hLEPR (Y1141F) cells (human) (UniProt P48357); test: cell-based or functional assay
[6] = target: full length human GP130 (L2V natural variant) on HEK293/Stat3-luc/gp130-2X Sort cells (human) (UniProt P40189); test: FACS, 200 nM antibody on HEK293/gp130 2X Sort cells
[7] = target: extracellular domain of human LEPR, GPI-anchored, on HEK293/hLEPR-GPI cells (human) (UniProt P48357); test: FACS, 200 nM antibody on HEK293/hLEPR-GPI cells, no Leptin
[8] = target: extracellular domain of human LEPR, GPI-anchored, on HEK293/hLEPR-GPI cells (human) (UniProt P48357); test: FACS, 200 nM antibody on HEK293/hLEPR-GPI cells, 1 µM Leptin
[9] = target: gp130 expressed endogenously on IMR-32/STAT3-Luc cells (human) (UniProt P40189); test: cell-based or functional assay
Chain of gp130 expressed endogenously on IMR-32/STAT3-Luc cells (human) (P40189 23-918): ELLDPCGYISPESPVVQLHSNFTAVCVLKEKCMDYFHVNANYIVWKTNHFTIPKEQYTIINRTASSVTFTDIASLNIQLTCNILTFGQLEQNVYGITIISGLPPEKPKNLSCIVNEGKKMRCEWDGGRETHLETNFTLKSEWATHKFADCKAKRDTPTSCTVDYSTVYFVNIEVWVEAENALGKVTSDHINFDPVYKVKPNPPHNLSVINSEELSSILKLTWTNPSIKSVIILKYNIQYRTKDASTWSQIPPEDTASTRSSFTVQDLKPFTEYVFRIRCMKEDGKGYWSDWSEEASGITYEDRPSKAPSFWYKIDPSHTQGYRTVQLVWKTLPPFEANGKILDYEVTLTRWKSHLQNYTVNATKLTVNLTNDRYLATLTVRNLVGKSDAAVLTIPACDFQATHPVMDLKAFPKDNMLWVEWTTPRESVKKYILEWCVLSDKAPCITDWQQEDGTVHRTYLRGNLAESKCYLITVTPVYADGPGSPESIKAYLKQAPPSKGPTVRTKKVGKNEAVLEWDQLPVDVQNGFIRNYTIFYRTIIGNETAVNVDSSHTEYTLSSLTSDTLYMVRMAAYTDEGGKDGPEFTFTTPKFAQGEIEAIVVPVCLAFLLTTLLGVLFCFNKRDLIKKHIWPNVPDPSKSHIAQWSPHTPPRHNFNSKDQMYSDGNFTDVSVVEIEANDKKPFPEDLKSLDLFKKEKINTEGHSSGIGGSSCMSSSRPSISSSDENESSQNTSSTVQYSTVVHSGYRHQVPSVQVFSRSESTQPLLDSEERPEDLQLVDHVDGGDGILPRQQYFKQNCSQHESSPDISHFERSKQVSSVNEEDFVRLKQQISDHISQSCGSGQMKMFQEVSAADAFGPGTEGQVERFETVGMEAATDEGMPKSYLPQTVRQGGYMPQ

Chain of extracellular domain of human LEPR, GPI-anchored, on HEK293/hLEPR-GPI cells (human) (P48357 22-839 limits assumed): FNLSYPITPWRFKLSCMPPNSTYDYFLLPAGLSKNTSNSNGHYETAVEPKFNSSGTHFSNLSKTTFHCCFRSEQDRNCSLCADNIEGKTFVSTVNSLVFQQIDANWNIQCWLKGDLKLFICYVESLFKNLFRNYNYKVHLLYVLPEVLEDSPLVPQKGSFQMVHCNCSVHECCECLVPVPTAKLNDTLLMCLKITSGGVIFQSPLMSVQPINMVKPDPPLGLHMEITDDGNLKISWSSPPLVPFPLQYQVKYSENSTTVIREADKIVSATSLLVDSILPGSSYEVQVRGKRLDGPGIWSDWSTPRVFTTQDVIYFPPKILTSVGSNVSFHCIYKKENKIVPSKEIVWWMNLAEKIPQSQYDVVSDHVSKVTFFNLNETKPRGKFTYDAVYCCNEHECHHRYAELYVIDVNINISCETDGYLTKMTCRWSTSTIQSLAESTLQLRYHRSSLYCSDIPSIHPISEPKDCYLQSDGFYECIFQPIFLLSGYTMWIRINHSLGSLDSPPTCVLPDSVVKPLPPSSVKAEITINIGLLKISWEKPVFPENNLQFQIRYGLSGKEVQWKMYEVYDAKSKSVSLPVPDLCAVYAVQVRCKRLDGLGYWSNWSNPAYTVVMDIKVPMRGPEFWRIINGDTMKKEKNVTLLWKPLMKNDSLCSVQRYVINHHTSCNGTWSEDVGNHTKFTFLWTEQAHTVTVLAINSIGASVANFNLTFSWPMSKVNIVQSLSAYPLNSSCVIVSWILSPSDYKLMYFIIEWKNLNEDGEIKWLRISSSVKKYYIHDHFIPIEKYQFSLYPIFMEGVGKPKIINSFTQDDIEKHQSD
Chain of mutant human LEPR (Y1141F) on HEK293.STAT3.Luc.GP130.hLEPR (Y1141F) cells (human) (P48357 22-1165 Y1141F): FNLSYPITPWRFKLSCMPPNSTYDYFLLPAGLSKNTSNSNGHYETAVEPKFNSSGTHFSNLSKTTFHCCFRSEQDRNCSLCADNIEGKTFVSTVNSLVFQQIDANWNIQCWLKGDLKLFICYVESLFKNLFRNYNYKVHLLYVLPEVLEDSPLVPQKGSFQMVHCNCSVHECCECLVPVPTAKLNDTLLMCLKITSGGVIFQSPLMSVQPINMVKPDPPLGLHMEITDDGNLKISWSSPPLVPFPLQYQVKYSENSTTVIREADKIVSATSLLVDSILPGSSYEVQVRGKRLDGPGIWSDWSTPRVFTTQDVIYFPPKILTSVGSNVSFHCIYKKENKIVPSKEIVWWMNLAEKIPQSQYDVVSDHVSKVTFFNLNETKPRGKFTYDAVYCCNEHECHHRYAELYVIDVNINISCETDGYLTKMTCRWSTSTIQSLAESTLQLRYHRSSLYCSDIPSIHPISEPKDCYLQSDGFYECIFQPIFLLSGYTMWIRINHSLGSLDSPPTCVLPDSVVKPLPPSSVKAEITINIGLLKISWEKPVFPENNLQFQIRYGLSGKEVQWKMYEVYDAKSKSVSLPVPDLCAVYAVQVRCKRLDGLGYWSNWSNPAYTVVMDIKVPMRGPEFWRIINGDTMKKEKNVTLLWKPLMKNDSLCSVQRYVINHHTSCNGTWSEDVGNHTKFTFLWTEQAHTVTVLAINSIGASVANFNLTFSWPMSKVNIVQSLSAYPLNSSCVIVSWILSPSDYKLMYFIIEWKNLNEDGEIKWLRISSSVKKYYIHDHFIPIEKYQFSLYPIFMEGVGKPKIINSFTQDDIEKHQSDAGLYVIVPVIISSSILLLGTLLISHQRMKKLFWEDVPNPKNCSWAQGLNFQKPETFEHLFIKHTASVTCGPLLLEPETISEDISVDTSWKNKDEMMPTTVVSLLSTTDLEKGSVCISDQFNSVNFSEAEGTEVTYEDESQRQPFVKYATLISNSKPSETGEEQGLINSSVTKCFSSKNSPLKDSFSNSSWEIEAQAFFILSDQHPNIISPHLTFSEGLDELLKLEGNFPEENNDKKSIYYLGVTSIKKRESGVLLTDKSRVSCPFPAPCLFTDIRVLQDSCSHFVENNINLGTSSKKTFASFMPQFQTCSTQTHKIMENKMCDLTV
Chain of wild-type human GP130 on HEK293.STAT3.Luc.GP130 reporter cells (human) (P40189 23-918): as the sequence (P40189 23-918) above

Q: Which results are given for “Alexa Fluor-647 conjugated secondary antibody (Jackson ImmunoResearch Laboratories Inc., #109-607-003)”?
A: Binding Ratio, normalized to unstained sample (FL4-A) [1]: 1 fold; Binding Ratio, normalized to unstained sample (FL4-A) [2]: 3 fold; Binding Ratio, normalized to unstained sample (FL4-A) [3]: 2 fold

Q: With “human OSM (R&D Systems, #295-OM/CF) (from UniProt P13725 26-221) (ligand)” as the substance, how does the EC50 (M), STAT3-luciferase activation of HEK293.STAT3.Luc.GP130.hLEPR (Y1141F) cells [4] read?
A: 5.92e-10 M

Q: And the EC50 (M), STAT3-luciferase activation of HEK293.STAT3.Luc.GP130.hLEPR (a) cells [4]?
A: 1.21e-10 M

Q: And the Percentage activation as compared to hOSM [4]?
A: 100%

Q: And the Percentage maximum activation as compared to hOSM [4]?
A: 100%

Q: Isotype Control (antibody) was tested. Which Assay Buffer, % activity [5] did it give?
A: 0%

Q: And the RLU, Assay Buffer (no soluble protein) [5]?
A: 12200 RLU and 12100 RLU

Q: What about the Assay Buffer, % activity [4] of the same substance?
A: 0%

Q: And the RLU, Assay Buffer (no soluble protein) [4]?
A: 12200 RLU and 12100 RLU

Q: What about the Binding Ratio, normalized to unstained sample (FL4-A) [6] of the same substance?
A: 2 fold

Q: What about the Binding Ratio, normalized to unstained sample (FL4-A) [7] of the same substance?
A: 3 fold

Q: What about the Binding Ratio, normalized to unstained sample (FL4-A) [8] of the same substance?
A: 3 fold

Q: How did the EC50 of activation of IMR-32/STAT3-luc cells (STAT3-luciferase) [9] turn out when “human Oncostatin M (from UniProt P13725 26-221) (ligand)” was run?
A: 0.054 nM
